Paper PMC9785301

Target: AjFER-D129A/E132A mutant (Apostichopus japonicus)
Assay: crystal structure; M3 at approx. 15 mg/mL in 25 mM Tris-HCl, pH 8.0, 150 mM NaCl; crystals from 0.05 M cadmium sulfate hydrate, 0.1 M HEPES, pH 7.5, 1.0 M sodium acetate trihydrate, 18 °C; assembly of subunits into the cage

stoichiometry N: 24
Substance: AjFER-D129A/E132A mutant
